In US8715959B2, “Substitution mutant receptors and their use in a nuclear receptor-based inducible gene expression system” (priority 2001, dated 2014):
Residue numbers refer to the chain shown, from its start. Names and notes keep the numbering of the source.

B1: V59A: CfEcR-DEF LBD substitution mutant, Valine (V) to Alanine (A) (protein, listed as Choristoneura fumiferana)
chain: LTANQQFLIARLIWYQDGYEQPSDEDLKRITQTWQQADDENEESDTPFRQITEMTILTAQLIVEFAKGLPGFAKISQPDQITLLKACSSEVMMLRVARRYDAASDSVLFANNQAYTRDNYRKAGMAYVIEDLLHFCRCMYSMALDNIHYALLTAVVIFSDRPGLEQPQLVEEIQRYYLNTLRIYILNQLSGSARSSVIYGKILSILSELRTLGMQNSNMCISLKLKNRKLPPFLEEIWDV
B2: F48A: CfEcR-DEF LBD substitution mutant, Phenylalanine (F) to Alanine (A) (protein, listed as Choristoneura fumiferana)
chain: B1 chain with F48A, A59V
B3: I62A: CfEcR-DEF LBD substitution mutant, Isoleucine (I) to Alanine (A) (protein, listed as Choristoneura fumiferana)
chain: B1 chain with A59V, I62A
B4: W238A: CfEcR-DEF LBD substitution mutant, Tryptophan (W) to Alanine (A) (protein, listed as Choristoneura fumiferana)
chain: B1 chain with A59V, W238A
B5: F109A: CfEcR-DEF LBD substitution mutant, Phenylalanine (F) to Alanine (A) (protein, listed as Choristoneura fumiferana)
chain: B1 chain with A59V, F109A
B6: Q21A: CfEcR-DEF LBD substitution mutant, Glutamine (Q) to Alanine (A) (protein, listed as Choristoneura fumiferana)
chain: B1 chain with Q21A, A59V
B7: L230A: CfEcR-DEF LBD substitution mutant, Leucine (L) to Alanine (A) (protein, listed as Choristoneura fumiferana)
chain: B1 chain with A59V, L230A
B8: L223A: CfEcR-DEF LBD substitution mutant, Leucine (L) to Alanine (A) (protein, listed as Choristoneura fumiferana)
chain: B1 chain with A59V, L223A
B9: A123F: CfEcR-DEF LBD substitution mutant, Alanine (A) to Phenylalanine (F) (protein, listed as Choristoneura fumiferana)
chain: B1 chain with A59V, A123F
B10: L234A: CfEcR-DEF LBD substitution mutant, Leucine (L) to Alanine (A) (protein, listed as Choristoneura fumiferana)
chain: B1 chain with A59V, L234A
B11: I51A: CfEcR-DEF LBD substitution mutant, Isoleucine (I) to Alanine (A) (protein, listed as Choristoneura fumiferana)
chain: B1 chain with I51A, A59V
B12: R95A/A110P: CfEcR-DEF LBD double mutant, R95A and A110P (protein, listed as Choristoneura fumiferana)
chain: B1 chain with A59V, R95A, A110P
B13: M93A: CfEcR-DEF LBD substitution mutant, Methionine (M) to Alanine (A) (protein, listed as Choristoneura fumiferana)
chain: B1 chain with A59V, M93A
B14: M125A: CfEcR-DEF LBD substitution mutant, Methionine (M) to Alanine (A) (protein, listed as Choristoneura fumiferana)
chain: B1 chain with A59V, M125A
B15: Y120A: CfEcR-DEF LBD substitution mutant, Tyrosine (Y) to Alanine (A) (protein, listed as Choristoneura fumiferana)
chain: B1 chain with A59V, Y120A
B16: R95A: CfEcR-DEF LBD substitution mutant, Arginine (R) to Alanine (A) (protein, listed as Choristoneura fumiferana)
chain: B1 chain with A59V, R95A
B17: G121R: DmEcR-CDEF LBD substitution mutant, Glycine (G) to Arginine (R) (protein)
chain: LTYNQLAVIYKLIWYQDGYEQPSEEDLRRIMSQPDENESQTDVSFRHITEITILTVQLIVEFAKGLPAFTKIPQEDQITLLKACSSEVMMLRMARRYDHSSDSIFFANNRSYTRDSYKMARMADNIEDLLHFCRQMFSMKVDNVEYALLTAIVIFSDRPGLEKAQLVEAIQSYYIDTLRIYILNRHCGDSMSLVFYAKLLSILTELRTLGNQNAEMCFSLKLKNRKLPKFLEEIWDV
modifications: Drosophila melanogaster
B18: A107P: DmEcR-CDEF LBD substitution mutant, Alanine (A) to Proline (P) (protein)
chain: B17 chain with A107P, R121G
modifications: Drosophila melanogaster
B19: N213A: DmEcR-CDEF LBD substitution mutant, Asparagine (N) to Alanine (A) (protein)
chain: B17 chain with R121G, N213A
modifications: Drosophila melanogaster

tested on: CfEcR-DEF; assay: GAL4/mutant CfEcR-DEF + VP16/LmUSP-EF GAL4-driven luciferase reporter transactivation in NIH3T3 cells; assay type: cell-based, Choristoneura fumiferana; details: 2.5 μM GS™-E non-steroidal ligand; NIH3T3 cells; relative to Gal4/wild-type CfEcR-DEF switch activity
Method: DNAs corresponding to the various switch constructs outlined in Example 1, specifically switches 1.1-1.13, were transfected into mouse NIH3T3 cells (ATCC) or L57 cells (Dr. Peter Cherbas; Indiana University) as follows. Standard methods for culture and maintenance of the cells were followed. […] Superfect™ (Qiagen Inc.) was used for 3T3 cells and Lipofectamine™ (LifeTechnologies) was used for L57 cells as the transfection reagents. For 12-well plates, 4 μl of Superfect™ or Lipofectamine™ was mixed with 100 μl of growth medium. One μg of reporter construct and 0.25 μg of each receptor construct of the receptor pair to be analyzed were added to the transfection mix. […] The cells were harvested and reporter activity was assayed.
Cells were harvested 40 hours after adding ligands. […] Twenty μl of lysate were assayed.
Briefly, Applicants mutated amino acid residues predicted to be critical for ecdysteroid binding into alanine and created GAL4/mutantCfEcR-DEF cDNA gene expression cassettes as described in Example 1 above using the Quikchange PCR-mediated site-directed mutagenesis kit (Stratagene, La Jolla, Calif.). The mutated and the WT cDNAs were tested in GAL4-driven luciferase reporter assays.
(§1) DNAs corresponding to the various switch constructs outlined in Example 1, specifically switches 1.1-1.2, were transfected into mouse NIH3T3 cells (ATCC) as follows. […] Two μl of Superfect™ was mixed with 100 μl of growth medium and 50 ng of either GAL4/wild-type EcR or Gal4/mutant EcR cassette, 50 ng of VP16/LmUSP-EF and 200 ng of pFRLuc were added to the transfection mix. […] The cells were harvested and reporter activity was assayed as described above.

Row | Molecule | Fold increase over WT, 2.5 μM GS™-E
1 | B1 | 0.47 fold
2 | B2 | 0.007 fold
3 | B3 | 0.12 fold
4 | B4 | 0.002 fold
5 | B5 | 0.22 fold
6 | B6 | 0.32 fold
7 | B7 | 0.001 fold
8 | B8 | 0.118 fold
9 | B9 | 0.09 fold
10 | B10 | 0.001 fold
11 | B11 | 0.003 fold
12 | B12 | 0.4 fold
13 | B13 | 0.46 fold
14 | B14 | 0.005 fold
15 | B15 | 0.001 fold
16 | B16 | 0.4 fold

same assay, conditions: 2.5 μM PonA steroidal ligand; NIH3T3 cells; relative to Gal4/wild-type CfEcR-DEF switch activity

Row | Molecule | Fold increase over WT, 2.5 μM PonA
17 | B1 | 0.002 fold
18 | B2 | 0.007 fold
19 | B3 | 0.004 fold
20 | B4 | 0.013 fold
21 | B5 | 0.005 fold
22 | B6 | 0.37 fold
23 | B7 | 0.006 fold
24 | B8 | 0.007 fold
25 | B9 | 0.005 fold
26 | B10 | 0.006 fold
27 | B11 | 0.004 fold
28 | B12 | 0.007 fold
29 | B13 | 0.07 fold
30 | B14 | 0.007 fold
31 | B15 | 0.006 fold
32 | B16 | 0.006 fold

tested on: DmEcR-CDEF; assay: GAL4/DmEcR-CDEF wild-type and mutants, luciferase reporter transactivation in NIH3T3 cells; assay type: cell-based, Drosophila melanogaster; details: 2.5 μM GS™-E, GAL4/DmEcR-CDEF + VP16/LmUSP-EF + pFRLUC, 48 hours
Method: as §1
Applicants mutated amino acid residues predicted to be critical for ecdysteroid binding and created GAL4/mutantDmEcR-CDEF cDNA gene expression cassettes as described in Example 1 above using PCR-mediated site-directed mutagenesis. The mutated and the WT cDNAs corresponding to the various switch constructs outlined above in Examples 1.8 and 1.9 were made and tested in reporter assays in NIH3T3 cells as described in Example 2. Each GAL4/DmEcR-CDEF construct, VP16/LmUSP-EF, and pFRLUC were transfected into NIH3T3 cells and the transfected cells were treated with 2.5 μM GS-™E or Ponasterone A. The cells were harvested and the reporter activity was measured at 48 hours after addition of ligand. The fold induction was calculated by dividing reporter activity in the presence of ligand with the reporter activity in the absence of ligand. From the fold induction, percent wild-type activity was calculated for each mutant.

Row | Molecule | Fold increase over WT, 2.5 μM GS™-E
33 | B17 | 0.0075 fold

same assay, conditions: 2.5 μM Ponasterone A, GAL4/DmEcR-CDEF + VP16/LmUSP-EF + pFRLUC, 48 hours

Row | Molecule | Fold increase over WT, 2.5 μM Ponasterone A
34 | B17 | 0.05 fold

tested on: DmEcR-CDEF; assay: VP16/DmEcR-CDEF wild-type and mutants, 6xEcRE β-gal reporter transactivation in insect L57 cells; assay type: cell-based, Drosophila melanogaster; details: 1 μM 20-hydroxyecdysone, VP16/DmEcR-CDEF
Method: The wild-type and mutant DmEcR-CDEF receptors were also used to make VP16/wild-type or mutantDmEcR-CDEF constructs as described in Example 1.10 and 1.11. VP16DmEcR-CDEF and a 6×EcREβ-gal reporter were transfected into L57 cells and the transfected cells were treated with 1 uM 20-hydroxyecdysone (20E) or GS™-E. The cells were harvested, lysed and the reporter activity was measured as described above in Example 6. The fold induction was calculated by dividing reporter activity in the presence of ligand with the reporter activity in the absence of ligand. From the fold induction, percent wild-type activity was calculated for each mutant.

Row | Molecule | Fold increase over WT, 1 μM 20-hydroxyecdysone
35 | B17 | 0.5 fold
36 | B18 | 0.09 fold
37 | B19 | 0.01 fold

same assay, conditions: 1 μM GS™-E, VP16/DmEcR-CDEF

Row | Molecule | Fold increase over WT, 1 μM GS™-E
38 | B17 | 0.92 fold
39 | B18 | 0.9 fold
40 | B19 | 0.08 fold

same assay, conditions: 20E, DmEcR mutants

Row | Molecule | steroid activity (summary of Table 14)
41 | B18 | loss of most steroid activity
42 | B19 | lost sensitivity

same assay, conditions: 20E, VP16/DmEcR-CDEF, versus wild-type

Row | Molecule | reduction in steroid activity
43 | B17 | 50%

same assay, conditions: GS™-E, DmEcR mutants

Row | Molecule | non-steroid activity (summary of Table 14)
44 | B17 | minimal effect
45 | B18 | very little effect
46 | B19 | lost sensitivity
